This data set concerns the molecule itself. The data set can be described thus: AUC.

The record followed here is paper PMC3003327 (The Journal of Cell Biology, 2010).

B1: human VASP^1-380aa, unlabeled wild type (untagged hVASP^1-380aa) (natural protein)
chain: GSMSETVICSSRATVMLYDDGNKRWLPAGTGPQAFSRVQIYHNPTANSFRVVGRKMQPDQQVVINCAIVRGVKYNQATPNFHQWRDARQVWGLNFGSKEDAAQFAAGMASALEALEGGGPPPPPALPTWSVPNGPSPEEVEQQKRQQPGPSEHIERRVSNAGGPPAPPAGGPPPPPGPPPPPGPPPPPGLPPSGVPAAAHGAGGGPPPAPPLPAAQGPGGGGAGAPGLAAAIAGAKLRKVSKQEEASGGPTAPKAESGRSGGGGLMEEMNAMLARRRKATQVGEKTPKDESANQEEPEARVPAQSESVRRPWEKNSTTLPRMKSSSSVTTSETQPCTPSSSDYSDLQRVKQELLEEVKKELQKVKEEIIEAFVQELRKRGSP
Take B1: the “stoichiometry N” value was 4.
